Results published in patent publication US20200354451A1.

Molecular target: human CD19 (human) (UniProt P15391)
Assay: cell-based or functional assay

Sequence of UniProt P15391 (P15391 20-556): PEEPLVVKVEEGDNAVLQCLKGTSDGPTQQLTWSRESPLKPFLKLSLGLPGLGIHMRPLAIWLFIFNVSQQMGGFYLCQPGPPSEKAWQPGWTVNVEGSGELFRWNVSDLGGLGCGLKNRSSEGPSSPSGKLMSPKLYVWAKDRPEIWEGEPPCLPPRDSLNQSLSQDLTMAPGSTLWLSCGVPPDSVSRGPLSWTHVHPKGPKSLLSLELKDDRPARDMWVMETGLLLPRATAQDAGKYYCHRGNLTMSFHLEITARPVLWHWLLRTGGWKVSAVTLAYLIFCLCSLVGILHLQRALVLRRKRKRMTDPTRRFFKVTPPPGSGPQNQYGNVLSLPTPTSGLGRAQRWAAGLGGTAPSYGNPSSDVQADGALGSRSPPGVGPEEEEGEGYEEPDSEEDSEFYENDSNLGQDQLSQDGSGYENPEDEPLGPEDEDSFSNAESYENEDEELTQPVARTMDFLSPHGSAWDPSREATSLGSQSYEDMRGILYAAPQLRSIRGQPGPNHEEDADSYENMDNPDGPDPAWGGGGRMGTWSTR

IFN-gamma secretion (ELISA), Hela-CD19 target cells: 8870 pg/mL
Substance: CD19 CAR (mouse FMC63 scFv, no TF)
